In WO2021228904A1 (dated 2021) one finds Kd data, which are given here for 25 molecules.

The chains are these.
B1: SEQ ID NOs: 213/209 (HCVR/LCVR) (antibody, V domains shown)
VH: EVQLVESGPGLVKPSETLSLTCTVSGGSISSYYWSWIRQPPGKRLEWIGYIYYSGSTNYNPSLKSRVTISVDTSKNQFSLKLNSVTAADTAAYYCARGFDYWGQGTRVTVSS
VL: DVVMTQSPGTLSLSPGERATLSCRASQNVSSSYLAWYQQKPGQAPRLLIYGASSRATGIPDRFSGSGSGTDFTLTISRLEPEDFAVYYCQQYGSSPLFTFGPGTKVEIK
B2: COVA2-07 (antibody, V domains shown)
VH: EVQLVETGGGLIQPGGSLRLSCAASGLTVSSNYMNWVRQAPGKGLEWVSVIYSGGSTYYADSVKGRFTISRDNSKNTLYLQMNSLRAEDTAVYYCAREAYGMDVWGQGTMVTVSS
VL: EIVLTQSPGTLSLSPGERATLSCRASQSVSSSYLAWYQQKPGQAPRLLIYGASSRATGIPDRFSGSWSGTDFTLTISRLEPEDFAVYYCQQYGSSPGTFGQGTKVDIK
B3: SEQ ID NOs: 49/53 (HCVR/LCVR) (antibody, V domains shown)
VH: QVQLVESGAEVKKPGSSVKVSCKASGGTLSSYAITWVRQAPGQGLEWVGGIIPIFGTANYAQKFQGRVTITADESTSTAYMELSSLRSEDTAVYYCARVGAYDSSGYSNDYWGQGTLVTVSS
VL: DIQLTQSPATLSLSPGERATLSCRASQSVSSYLAWYQQKPGQAPRLLIYDASNRATGIPARFSGSGSGTDFTLTISSLEPEDFAVYYCQQRSNWPPRVTFGGGTKVEIK
B4: COVA2-29 (antibody, V domains shown)
VH: EVQLVESGGGVVQPGRSLRLSCAASGFTFSSYTMHWVRQAPGKGLEWVAVISYDGSNKYYADSVKGRFTISRDNSKNTLYLQMNSLRAEDTAVYYCASLPVVPAAIGPLPAFDIWGQGTMVTVSS
VL: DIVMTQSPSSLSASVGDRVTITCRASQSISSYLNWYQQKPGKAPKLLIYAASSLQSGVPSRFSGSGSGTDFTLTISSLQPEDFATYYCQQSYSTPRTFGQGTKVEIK
B5: SEQ ID NOs: 565/569 (HCVR/LCVR) (antibody, V domains shown)
VH: EVQLLESGAEVKKPGASVKISCKASGYTFTGYYMHWVRQAPGQGLEWMGWINPNSGGTNYAQKFQGRVTMTRDTSISTAYMELSRLRSDDTAVYYCARGDGDYYDSSGYYRPTLYNWLDPWGQGTRVTVSS
VL: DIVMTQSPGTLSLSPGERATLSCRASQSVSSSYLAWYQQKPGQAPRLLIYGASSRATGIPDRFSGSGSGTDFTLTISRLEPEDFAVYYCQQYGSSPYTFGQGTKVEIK
B6: SEQ ID NOs: 201/205 (HCVR/LCVR) (antibody, V domains shown)
VH: QLQLQESGPGLVKPSQTLSLTCTVSGGSISSGGYYWSWIRQLPGKGLEWIGYIYYSGSTYYNPSLKSRVTISVDTSKNQFSLNLSSVTAADTAVYYCARQQLDYYDSSGCFDYWGQGTLVTVSS
VL: DIVMTQSPSFLSASVGDRVTITCRASQGISSYLAWYQQKPGKAPKLLIYAASTLQSGVPSRFSGSGSGTEFTLTISSLQPEDFATYYCQQLHSYPLTFGGGTKVDIK
B7: 002_P1H10 (antibody, V domains shown)
VH: QVQLVETGGGLIQPGGSLRLSCAASGFTVSSNYMSWVRQAPGKGLEWVSVIYSGGSTYYADSVKGRFTISRDNSKNTLYLQMNSLRAEDTAVYYCARDLDTMGGMDVWGQGTRVTVSS
VL: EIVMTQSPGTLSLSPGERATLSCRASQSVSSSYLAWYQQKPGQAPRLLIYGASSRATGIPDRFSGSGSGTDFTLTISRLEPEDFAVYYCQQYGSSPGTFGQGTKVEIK
B8: COVA2-02 (antibody, V domains shown)
VH: VQLQQESGPGLVKPSETLSLTCTVSGGSISSSSYYWGWIRQPPGKGLEWIGSIYYSGSTYYNPSLKSRVTISVDTSKNQFSLKLSSVTAADTAVYYCARRSTSRWGYYYMDVWGKGTRVTVSS
VL: DIVMTQSPSSLSASVGDRVTITCRASQSISNYLNWYQQKPGKAPKLLLYAASDLQSGVPSRFSGSGSGTDFTLTISSLQPEDFATYYCQQSYSTHMSTFGQGTKVDIK
B9: SEQ ID NOs: 233/237 (HCVR/LCVR) (antibody, V domains shown)
VH: EVQLVESGGGLVQPGGSLRLSCAASGFTFSSYSMNWVRQAPGKGLEWVSYISSSSSTIYYADSVKGRFTISRDNAKNSLYLQMNSLRAEDTAVYYCAREANSDFWSGYLGYFDYWGQGTLVTVSS
VL: EIVMTQSPATLSLSPGERATLSCRASQSVSSYLAWYQQKPGQAPRLLIYDASNRATGIPARFSGSGSGTDFTLTISSLEPEDFAVYYCQQRSNWPQVTFGQGTRLEIK
B10: COVA2-39 (antibody, V domains shown)
VH: QVQLVETGGGLIQPGGSLRLSCAASGFTVSSNYMSWVRQAPGKGLEWVSVIYTGGTTYYADSVKGRFTISRDNSKNTLYLQMNSLRAEDTAVYYCARAHVDTAMVESGAFDIWGQGTRVTVSS
VL: QSALTQPASVSGSPGQSITISCTGTSSDVGSYNLVSWYQQHPGKAPKLMIYEVTKRPSGVSNRFSGSKSGNTASLTISGLQAEDEADYYCCSYAGSSTWVFGGGTKLTVL
B11: SEQ ID NOs: 533/537 (HCVR/LCVR) (antibody, V domains shown)
VH: EVQLVESGGGLVKPGGSLRLSCSASGFTFSNYNMDWVRQAPGKGLEWVSSISSSSSYIYLADSVKGRFTISRDNAKNSLYLQMNSLRAEDTAVYYCARVQKDIVVVPVALADYYYYGMDVWGQGTTVTVSS
VL: DIVMTQSPATLSVSPGERATLSCRASQSVSSNLAWYQQKPGQAPRLLIYGASTRATGIPARFSGSGSGTEFTLTISSLQPEDFAVYYCQQCYNWPPWTFGQGTRVEFK
B12: 002_P1D6 (antibody, V domains shown)
VH: EVQLLESGAEVKKPGESLKISCKGSGYSFTSYWIGWVRQMPGKGLEWMGIIYPGDSDTRYSPSFQGQVTISADKSISTAYLQWSSLKASDTAMYYCARHMRPSIAARPGYQYYMDVWGKGTRVTVSS
VL: not shown
B13: 002_P1H2 (antibody, V domains shown)
VH: EVQLVESGAEVKKPGSSVKVSCKASGGTLSSYAISWVRQAPGQGLEWMGGIIPIFGTANYAQKFQGRVTITTDESTSTAYMELSSLRSEDTAVYYCARGPRGCSSTSCYGSYFDYWGQGTLVTVSS
VL: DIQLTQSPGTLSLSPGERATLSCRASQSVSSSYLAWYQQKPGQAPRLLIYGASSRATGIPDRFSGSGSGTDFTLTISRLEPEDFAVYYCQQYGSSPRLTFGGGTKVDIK
B14: 002_P2H1 (antibody, V domains shown)
VH: EVQLVESGGGLIQPGGSLRLSCAASGFTVSSNYMSWVRQAPGKGLEWVSVIYSGGSTYYADSVKGRFTISRDNSKNTLYLQMNSLRAEDTAVYYCASPLLLTPPDYYYYMDVWGKGTMVTVSS
VL: DVVMTQSPSSLSVSVGDRVTITCRASQGIRNDLGWYQQKPGKAPKRLIYAASSLQSGVPSRFSGSGSGTEFTLTISSLQPEDFATYYCLQHNSYLWTFGQGTKLEIK
B15: SEQ ID NOs: 153/157 (HCVR/LCVR) (antibody, V domains shown)
VH: QVQLVESGGGLVKPGGSLRLSCAASGFTFSSYSMNWVRQAPGKGLEWVSSISSSSSYIYYADSVKGRFTISRDDAKNSLFLQMNSLRAEDTAVYYCAGDQNLYCSGDSCYYHYYGMDVWGQGTVVTVSS
VL: NFMLTQPPSVSVAPGKTARITCGGNNIGSKSVHWYQQKPGQAPVLVIYYDSDRPSGIPERFSGSNSGNTATLTISRVEAGDEADYYCQVWDSSSDHWVFGGGTKLTVL
B16: SEQ ID NOs: 397/401 (HCVR/LCVR) (antibody, V domains shown)
VH: EVQLVQSGAEVKKPGESLRISCKGSGYSFTSYWISWVRQMPGKGLEWMGRIDPSDSYTNYSPSFQGHVTISADKSISTAYLQWSSLKASDTAMYYCARPNPAGGYDSSGWVDAFDIWGQGTRVTVSS
VL: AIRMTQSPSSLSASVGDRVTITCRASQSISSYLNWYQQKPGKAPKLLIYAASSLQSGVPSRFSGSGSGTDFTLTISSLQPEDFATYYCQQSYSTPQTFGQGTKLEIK
B17: SEQ ID NOs: 389/393 (HCVR/LCVR) (antibody, V domains shown)
VH: EVQLVESGAEVKKPGSSVKVSCKASGGTFSSYAISWVRQAPGQGLEWMGGIIPIFGTANYAQKFQGRVTITTDESTSTAYMELSSLRSEDTAVYYCARGPRYCSSTSCYAGVYFDYWGQGTRVTVSS
VL: not shown
B18: SEQ ID NOs: 469/473 (HCVR/LCVR) (antibody, V domains shown)
VH: QVQLVQSGAEVKKPGESLRISCKGSGYSFTSHWISWVRQMPGKGLEWMGRIDPSDSYTNYSPSFQGHVTISADKSISTAYLQWSSLKASDTAMYYCARLKVITIFGVVRDDYGMDVWGQGTTVTVSS
VL: QSALTQPASVSGSPGQSITISCTGTSSDVGSYNLVSWYQQHPGKAPKLMIYDSSKRPSGVSNRFSGSKSGNTASLTISGLQAEDEADYYCCSYAGSVFGGGTKLTVL
B19: SEQ ID NOs: 429/433 (HCVR/LCVR) (antibody, V domains shown)
VH: EVQLVESGGGVVQPGRSLRLSCAASGFTFSSYGMHWVRQAPGKGLEWVAVIWYDGSNKYYADSVKGRFTISRDNSKNTLYLQMDSLRAEDTAMYYCAKDKAPPCSSGWYYFDYWGQGTLVTVSS
VL: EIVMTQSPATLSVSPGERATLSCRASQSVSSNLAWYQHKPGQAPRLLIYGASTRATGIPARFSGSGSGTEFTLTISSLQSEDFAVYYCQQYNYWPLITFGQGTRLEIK
B20: SEQ ID NOs: 629/633 (HCVR/LCVR) (antibody, V domains shown)
VH: QVQLVESRAEVKKPGSSVKVSCKASGGTFSSYAISWVRQAPGQGLEWMGRIIPILGITNYAQKFQGRVTITADKSTSTAYMELSSLRSEDTAVYYCARDAPDYYDSSGPTYFDYWGQGTLVTVSS
VL: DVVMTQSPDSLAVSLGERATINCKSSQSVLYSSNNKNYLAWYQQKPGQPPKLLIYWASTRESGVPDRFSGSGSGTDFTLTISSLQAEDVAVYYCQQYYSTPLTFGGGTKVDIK
B21: COVA1-22 (antibody, V domains shown)
VH: EVQLVESGAEVKKPGASVKVSCKASGYTFTSYGISWVRQAPGQGLEWMGWISAYNGYTNSAQKLQGRVTMTTDTSTSTAYMELRSLRSDDTAVYYCARDLVDTAMVQTLDDYGMDVWGQGTMVTVSS
VL: not shown
B22: SEQ ID NOs: 573/577 (HCVR/LCVR) (antibody, V domains shown)
VH: QVQLQESGPGLVKPSETLSLTCTASGGSISSSSYYWGWIRQPPGKGLEWIGSIYYSGSTYYNPSLKSRVTISVDTSKNQFSLKLSSVTAADTAVYYCARHPSGLYQLLNWGQGTLVTVSS
VL: AIRMTQSPSSLSASVGDRVTITCQASQDISNYLNWYQQKPGKAPKLLIYDASNLETGVPSRFSGSGSGTDFTFTISSLQPEDIATYYCQQYDNLLSLTFGGGTKVEIK
B23: SEQ ID NOs: 453/457 (HCVR/LCVR) (antibody, V domains shown)
VH: EVQLVESGVEVKKPGASVKVSCKAFGYTFTGQDMHWVRQAPGQGLEWMGWINPSSAGTNYAQKFQGRVTMTRDTSISTAYMELSRLRSDDTSVYYCRKMLTIFGKVNQTMLLISGAKGQWSPSLQWGQGTMVTVSS
VL: DIVMTQTPLSLSVTPGQPASISCKSGQSLLHSDGKTYLYWYLQKPGQPPQLLIYEVSNRFSGVPDRFSGSGSGTDFTLKISRVEAEDVGVYYCMQSIQLPPTFGQGTKVEIK
B24: SEQ ID NOs: 445/449 (HCVR/LCVR) (antibody, V domains shown)
VH: EVQLVESGPGLVKPSQTLSLTCTVSGGSISSGDYYWSWIRQPPGKGLEWIGYIYYSGSTYYNPSLKSRVTISVDTSKNQFSLKLSSVTAADTAVYYCARGVEDPVVPAAIPWCWFDPWGQGTRVTVSS
VL: QSVLTQPPSVSVAPGQTARITCGGNNIGSKSVHWYQQKPGQAPVLVVYDDSDRPSGIPERFSGSNSGNTATLTISRVEAGDEADYYCQVWASSSVVFGGGTKLTVL
B25: COVA1-16 (antibody, V domains shown)
VH: QVQLVQSGAEVKKPGASVKVSCKASGYTFTSYYMHWVRQAPGQGLEWMGIINSSGGSTSYAQKFQGRVTMTRDTSTSTVYMELSSLRSEDTAVYYCARPPRNYYDRSGYYQRAEYFQHWGQGTLVTVSS
VL: DIQLTQSPSSLSASVGDRVTITCQASQDISNYLNWYQQRPGKAPKLLIYDASNLETGVPSRFSGSGSGTDFTFTISSLQPEDIATYYCQQYDNPPLTFGGGTKLEIK

This test addresses stabilized prefusion SARS-CoV-2 S ectodomain (SARS-CoV-2 (Wuhan-Hu-1), UniProt P0DTC2 15-1138). Description: SPR. (In general: Surface plasmon resonance follows binding to a sensor surface in real time, without labels.)
What is called Kd is the concentration at which binding is half-saturated. Higher therefore signals weaker binding. In the case of B1, the equilibrium dissociation constant (Kd) was at most 1 nM.
As for B2, the dissociation constant (Kd) is at most 1 nM.
The figure for B3 is at most 1 nM.
Consider B4, for which the equilibrium dissociation constant (Kd) was at most 1 nM.
To B5 belongs at most 1 nM.
In turn, B6 yielded an equilibrium dissociation constant (Kd) of at most 1 nM.
B7 yielded a Kd of at most 1 nM.
To B8 belongs at most 1 nM; to B9, at most 1 nM; to B10, at most 1 nM.
For B11, the Kd was at most 1 nM.
The figure for B12 is at most 1 nM.
To B13 belongs at most 1 nM; to B14, at most 1 nM.
To B15 belongs at most 1 nM; to B16, at most 1 nM.
The molecule B17 had an equilibrium dissociation constant (Kd) of at most 1 nM.
The figure for B18 is at most 1 nM; for B19 it is at most 1 nM.
For the molecule B20, the Kd was at most 1 nM.
To B21 belongs at most 1 nM; to B22, at most 1 nM; to B23, at most 1 nM.
Regarding B24, the Kd is at most 1 nM.
Molecule B25 displayed a Kd of at most 1 nM.
